The term Kd denotes the free concentration of one partner at which half of the binding sites on the other are occupied at equilibrium, for simple one-to-one binding.

The values that follow come from patent US20180334496A1 (KODIAK SCIENCES, published 2018).

What all share (assay): SPR MX96
Test [1] concerns the target T1, recombinant cynomolgus CFD, His-tagged (cynomolgus).
T1 construct: also called rcyCFD-His; recombinant Cyno-CFD

Test [2] deals with T2, human complement factor D purified from serum (human, UniProt P00746 26-253).
T2 construct: serum-purified (CompTech); also called hCFD-Comptech; CFD

The target in test [3] is T3, recombinant human CFD mutant 1 (R157A, R207A), His-tagged (human, UniProt P00746 26-253).
T3 construct: positions are linear positions in the mature protein; also called rhCFD-mut1-His; Mut1

In test [4] the target is T4, recombinant human CFD, His-tagged (human, UniProt P00746 26-253).
T4 construct: also called rhCFD-His
T4 sequence (P00746 26-253 limits assumed): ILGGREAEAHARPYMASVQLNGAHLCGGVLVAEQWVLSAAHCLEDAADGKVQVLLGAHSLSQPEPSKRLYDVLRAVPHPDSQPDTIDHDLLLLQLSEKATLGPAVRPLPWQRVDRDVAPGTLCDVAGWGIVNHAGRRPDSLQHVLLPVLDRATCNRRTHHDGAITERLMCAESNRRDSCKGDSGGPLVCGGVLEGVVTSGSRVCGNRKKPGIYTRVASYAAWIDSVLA

T2 sequence (P00746 26-253): as the sequence (P00746 26-253 limits assumed) above
T3 sequence (P00746 26-253 R182A/R232A limits assumed): as the sequence (P00746 26-253 limits assumed) above, with R157A, R207A counted along it

B1: KCD066 (antibody, V domains shown)
VH: QVQLQQSAAELARPGASVKMSCKASGYTFTDYTMHWVKQRPGQGLEWIGYINPSGGYTDYNQKFKDKTALTADKSSSTAYMQLSSLTSEDSAVYYCARRRDYWFAYWGQGTLVTVSA
VL: DIVMSQSPSSLAVSVGEKVTMSCKSSQSLLYSGNQKNYLAWYQQKPGQSPKLLIYWASTRESGVPDRFTGSGSGTDFTLTISSVKAEDLAVYYCHQYYSYLTFGAGTKLELK
With B1, the Kd in test [1] was determined as 4 nM; in test [2], 2.9 nM; in test [3] it was 1.2 nM; in test [4], 1.9 nM.

B2: KCD212 (antibody, V domains shown)
VH: EVHLVESGGDLVKPGGSLKLSCAASGFTFSRYGMSWVRQTPDKRLEWVATISSAGSYTYYPDSVKGRFTISRDNAKNTLFLQMSSLKSEDTAMYYCARPLNYYGTSSFDYWGQGTTLTVSS
VL: QIVLTQSPAIMSASPGEKVTMTCRASSSVSSTYLHWYQQKPGSSPKLWIYSTSNLASGVPPRFSGSGSGTSYSLTISSVEAEDAATYYCQQYDSSPNTFGAGTKLELK
With B2, the Kd in test [1] was 3.8 nM; in test [2] it was 0.47 nM; in test [3], 0.2 nM; in test [4] it was 0.21 nM.

B3: KCD019 (antibody, V domains shown)
VH: QVQLQQSGAELARPGASVKMSCKASGYTFATYTIHWVKQRPGQGLEWIGYLNLRNDYTHYNQKFRDKAALTADKSSSTAYMQLSSLTSEDSAVYNCAFRLGNDRQGWYFDVWGAGTTVTVSS
VL: DIVMTQAHRFMSTSVGDRVIISCKASQDVGTAVAWYQQTPGQSPKILIYWTSTRHTGVPDRFTGSRSGTDFTLTISNVQSEDLADYFCQQYTTYPLTFGGGTKLEIK
Take B3: the Kd amounted to 47 nM in test [1], 7.2 nM in test [2], 180 nM in test [3] and 61 nM in test [4].

B4: KCD114 (antibody, V domains shown)
VH: EVQLQQSGPELVKPGASVKISCKASGYSFTAYYMNWVKQSPEKSLEWIGDINPSTGGTTYNQNFKAKATLTVDKSSSTAYMHLKSLTSEDSAVYYCATTYYSGNSYVGFAYWGQGTLVTVSA
VL: DIVMTQSHKFMSTSVGDRVSITCKASQDVSTAVAWYQQKPGQSPKLLIFWASTRHTGVPDRFTGSGSGTDYTLTISSVQAEDLALYYCQQHYSTPWTFGGGTKLEIK
With B4, the Kd in test [1] turned out to be 8.4 nM; in test [2], 8.1 nM; in test [3] it was 8.4 nM; in test [4], 3.8 nM.

B5: KCD004 (antibody, V domains shown)
VH: EVQLQQSGAELVRPGSSVKMSCKTSGKTFTSHGINWVKQRPGQGLEWIGYIYIGNGYNEYNEKFKGKATLTSDTSSSTAYMQLSSLTFEDSAIYFCVRKAYGNYGFDDWGQGTTLTVSS
VL: DIQMTQSPTSLSASLGESVSLTCRASQEISGYLNWLQQKPDGSIKRLIYAASTLDSGVPKRFSGSRSGSDYSLTISSLESEDFADYYCLQYANYPFTFGSGTKLEVK
notes: also called OG2063
Take B5: the Kd in test [1] stood at 0.92 nM; in test [2], 0.35 nM; in test [3], 0.14 nM; in test [4] it was 0.24 nM.

B6: KCD205 (antibody, V domains shown)
VH: EVQLQQSGAELVRPGSSVKMSCKTSGNTFTSHGINWVKQRPGQGLEWIGYIYIGNGYNEYNEKFKGKATLTSDTSSSTAYMQLSSLTSEDSAIYFCVRKAYGNYGFDDWGQGTTLTVSS
VL: DIQMTQSPSSLSASLGERVSLTCRASQEISGYLSWLQQKPDGTIKRLIYAASTLDSGVPKRFSGSSSGSDYSLTISSLESDDFADYYCLQYASYPFTFGSGTKLEIK
In the case of B6, the Kd in test [1] came out at 3.3 nM; in test [2] it was 3 nM; in test [3], 1.8 nM; in test [4], 1.9 nM.

B7: KCD125 (antibody, V domains shown)
VH: EVQLQQSGAELVRPGSSVKMSCKTSGNTFTSYGINWVKQRPGQGLEWIGYIYIGTGYTEYNEKFKGKATLTSDTSSSTAYMQLSSLTSEDSAIYFCVRKAYGNYGFDYWGQGTTLTVSS
VL: DIQMTQSPSSLSASLGERVSLTCRASQEISGYLSWLQQKPDGTIKRLIYAASTLDSGVPKRFSGSRSGSDYSLTISSLESEDFADYYCLQYASYPFTFGSGTKLEIK
With B7, the Kd in test [1] is 4.1 nM; in test [2], 3.8 nM; in test [3] it was 2.7 nM; in test [4] it was 2.5 nM.

B8: KCD126 (antibody, V domains shown)
VH: EVQLQQSGAELVRPGSSVKMSCKTSGKTFTSHGINWVKQRPGQGLEWIGYIYIGNGYNEYNEKFKGKATLTSDTSSSTAYMQLSSLTFEDSAIYFCVRKAYGNYGFDDWGQGTTLTVSS
VL: DIQMTQSPTSLSASLGESVSLTCRASQEISGNLNWLQQKPDGSIKRLIYAASTLDSGVPKRFSGSRSGSDYSLTISSLESEDFADYYCLQYANYPFTFGSGTKLEVK
Consider B8, for which the Kd was 0.93 nM in test [1], 0.34 nM in test [2], 0.18 nM in test [3] and 0.29 nM in test [4].

B9: KCD011 (antibody, V domains shown)
VH: EVKLVESGGGLVQPGGSLKLSCAASGFTFSSNTMSWVRQTPEKRLEWVAYITNGGGSTYYPDTVKGRFTISRDNARNTLYLQMSSLKSEDTAMYYCARHDYYTMDYWGQGTSVTVSS
VL: DIQMTQSPSSLSASLGGKVTITCKASQDINKYIAWYQHKPGKGPRLLIHYTSTLQPGIPSRFSGSGSGRDYSFSISNLEPEDIATYYCLQYDNLLYTFGGGTKLEIK
For the molecule B9, the Kd in test [1] turned out to be 38 nM; in test [2] it was 77 nM; in test [3], 110 nM; in test [4], 59 nM.

B10: KCD058 (antibody, V domains shown)
VH: EVKLVESGGDLVQPGGSLKLSCAASGFTFSRYIMSWVRLTPEKRLEWVAFITNGGGNTYHPDTVKGRFTISRDNANNTLYLQMSSLKSEDTAIYYCARHDYYALDYWGQGTSVTVSS
VL: DIQMTQSPSSLSASLGGKVTITCKASQDINKYIAWYQHKPGKGPRLLIHYTSTLQPGIPSRFSGSGSGRDYSFSISNLEPEDIATYYCLQYDNLLYTFGGGTKLEIK
Regarding B10, the Kd in test [1] was 11 nM; in test [2], 9.9 nM; in test [3], 7.6 nM; in test [4], 9.4 nM.

B11: KCD056 (antibody, V domains shown)
VH: EVKLVESGGGLVQPGGSLKVSCAASGFTFSTYTMSWVRQTPEKRLEWVAYITNGGGSTYYPDTEKGRFTISRDNAKNTLYLQMSSLKSEDTAMYYCVRHDYYAMDYWGQGTSVTVSS
VL: DIQMTQSPSSLSASLGGKVTITCKASQDINKYIAWYQHKPGKGPRLLIHYTSTLQPGIPSRFSGSGSGRDYSFSISNLEPEDIATYYCLQYDNLLYTFGGGTTLEIK
As to B11, the Kd in test [1] is 31 nM; in test [2], 60 nM; in test [3], 84 nM; in test [4], 52 nM.

B12: KCD057 (antibody, V domains shown)
VH: EVKLVESGGGLVQPGGSLKLSCAASGFTFSNYIMSWVRQTPEKRLEWVAYITNGGGATYYPDTVKGQFTISRDNAKNTLYLQMSSLKSEDTAIYYCARHDFYALDFWGQGTSVTVSS
VL: DIQMTQSPSSLSASLGGKVTITCKASQDINKYIAWYQHKPGKGPRLLIHYTSTLQPGIPSRFSGSGSGRDYSFSISNLEPEDIATYYCLKYDNLLYTFGGGTKLEIK
With B12, the Kd in test [1] was determined as 3.1 nM; in test [2], 2.7 nM; in test [3], 2.5 nM; in test [4] it was 2.7 nM.
